Molecular target: nucleosome core particle assembled on a 149 bp long 601 DNA sequence (Xenopus laevis)
Experiment: cryo-EM micrographs and 2D classification; NCPs on 149 bp 601 DNA at 150 mM NaCl; particles with a second NCP in the proximity counted by 2D classification (Relion)

percent of particles with a second NCP in the proximity: 20%
Substance: nucleosome core particle assembled on a 149 bp long 601 DNA sequence (complex)

From PMC5935684
